# ± gives the standard deviation of the averaged measurements.
# Test system: Saccharomyces cerevisiae
# Assay: protein stability index of tFT-peptide fusion (C-terminal peptide) (PSI (0-1 scale)); higher = more stable (slower turnover)
# Settings: genetic background: wild type; temperature: 30 C
# Procedure: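 Multiplexed protein stability (MPS) profiling in S. cerevisiae. Random 12-aa peptides (tFT-X12 library) are fused to the C-terminus of a sfGFP-mCherry tandem fluorescent timer, after mCherry and a GGGS linker. Cells are FACS-sorted into 8 mCherry/sfGFP bins and deep-sequenced. The protein stability index (PSI) is the read-weighted bin average, scaled from 0 (unstable) to 1 (stable). Only peptides with >10 reads are reported; cells were grown at 30 °C in SC-His with glucose.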
# 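Also: PSI is a weighted mean of sequencing reads over stability bins, variants kept only with over 10 reads, mCherry proximal and sfGFP distal, peptide attached via GGGS linker.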
row,Sequence,protein stability index
1,RDMCVFSGGSGV,0.68 ± 0.048
2,SLLSLPPSRAPS,0.666 ± 0.022
3,RRLSRPPNLSRH,0.676 ± 0.021
4,KKEQKRKKKEKQ,0.758 ± 0.098
5,HPSAALLSSCYK,0.677 ± 0.047
6,PPPPPPPPPPPP,0.627 ± 0.031
7,RCEGNGKRASTE,0.632 ± 0.031
8,RKICVEDIKESI,0.669 ± 0.013
9,SVSNSRCGRLML,0.71 ± 0.046
10,APPRSPLFSSLF,0.638 ± 0.01
11,PTFRSRPFPPHP,0.703 ± 0.032
12,FGVTGLGVGLVW,0.639 ± 0.0066
13,RRGAVWDLVGDG,0.571 ± 0.029
14,LGLPISREASVG,0.637 ± 0.011
15,ANAPPTASFSPP,0.6745 ± 0.0014
16,SPSSSPLSPFPL,0.713 ± 0.084
17,LSFFPPPLPPSS,0.71 ± 0.044
18,IWQLRARIQAGW,0.617 ± 0.047
19,TPPPASALPPSP,0.705 ± 0.014
20,PYSPPYSLTSLS,0.708 ± 0.075
21,MYRSLPRLKQTY,0.721 ± 0.031
22,YVPTPSRPRRNR,0.718 ± 0.066
23,WGGRAVGVLGVG,0.629 ± 0.048
24,SLSIFTSFLVLF,0.598 ± 0.021
25,VPDGPAHIPLPL,0.683 ± 0.065

row,Sequence,protein stability index
1,PLLLLFLSLFRR,0.63 ± 0.023
2,GGRSSGRLMGKE,0.712 ± 0.013
3,IQIGESLYFWFV,0.654 ± 0.066
4,GCLSPSTPLWFP,0.71454 ± 0.00037
5,RKISLNSPPRES,0.757 ± 0.1
6,ECSGGGCGQRVG,0.733 ± 0.056
7,RLGGGGVGVAGV,0.679 ± 0.00083
8,YLKVNDELERRR,0.695 ± 0.05
9,VVHECIGVYGTV,0.634 ± 0.017
10,FSVGSPLSSPGI,0.713 ± 0.04
11,RCTQCFSPFSTD,0.7221 ± 0.0052
12,ELEIRSLCPDVV,0.694 ± 0.024
13,ALMEFLVFSRCG,0.642 ± 0.074
14,TSSPVFPFPPTP,0.745 ± 0.042
15,LCRRGGRSACGS,0.7019 ± 0.0067
16,IDSWWLPSDLKV,0.835 ± 0.017
17,TSGAQSTRLGRE,0.778 ± 0.11
18,VPACFSYFLASC,0.68 ± 0.04
19,ITSHRDSVSRWK,0.707 ± 0.0095
20,VTRGGKLRRGRV,0.638 ± 0.089
21,SNPGGYCPQGVP,0.731 ± 0.024
22,DHGVRASSRATG,0.692 ± 0.015
23,IRRLCGSSRPLP,0.708 ± 0.037
24,GRKRWVRLSLAC,0.563 ± 0.028
25,VKGKKREVTDPR,0.6376 ± 0.0023

row,Sequence,protein stability index
1,SSCLDAHPPSSS,0.736 ± 0.072
2,LNEVSLLSPAPL,0.64 ± 0.057
3,HACGGVFLSSVR,0.693 ± 0.025
4,HRPPATFPVAHP,0.735 ± 0.042
5,EFVGKDRWVGGL,0.699 ± 0.053
6,PPPVLSLPPLPV,0.668 ± 0.028
7,DLTGKGCIYMER,0.702 ± 0.034
8,TIHKRTLEGSYN,0.65 ± 0.048
9,VLPKQVSEALTL,0.612 ± 0.024
10,LPGFPGPSCICH,0.703 ± 0.21
11,KRRQGRGAKGGE,0.629 ± 0.045
12,PVPLVLSFLCDL,0.686 ± 0.03
13,RLSGRRLVNYRP,0.641 ± 0.036
14,RTAEGRVRGRPR,0.689 ± 0.067
15,TVPRSPPSPPLT,0.7 ± 0.021
16,GGVGWWVGVVWG,0.624 ± 0.071
17,PASYLSSPLRPP,0.667 ± 0.046
18,ASQPNRIPSPPR,0.71 ± 0.01
19,PSSLPPLSAPSS,0.6829 ± 0.0035
20,SARFALSQAPPI,0.814 ± 0.12
21,LGCSVGESVGAG,0.68 ± 0.03
22,EEKQLNKIKRKI,0.662 ± 0.059
23,ARRAAPRRPPSD,0.689 ± 0.047
24,GGKWGVAGGGPW,0.738 ± 0.074
25,RWWRLRSGGGRR,0.707 ± 0.017

row,Sequence,protein stability index
1,AFFLHKTFRSSF,0.732 ± 0.028
2,FFSVLSAISFFF,0.628 ± 0.06
3,VGVGRGALRWYG,0.704 ± 0.014
4,PPGPVVPPPPPD,0.664 ± 0.027
5,CLCHAPLPLAAP,0.642 ± 0.013
6,GGRRYSRPGQKH,0.661 ± 0.018
7,DCFSFVASSSFC,0.7696 ± 0.004
8,SRRLQSPVRVVT,0.773 ± 0.15
9,PPPLLPPHLPLL,0.717 ± 0.032
10,GVSTGSGASVAA,0.659 ± 0.051
11,GWVKWGVGIGRG,0.734 ± 0.079
12,VWGWGSWGGCGG,0.705 ± 0.066
13,SFSAFRCDPAEM,0.676 ± 0.011
14,PHAPTAGPFPLP,0.783 ± 0.021
15,LTASPPRLPPFP,0.701 ± 0.0081
16,PPLVHPCPSSHI,0.801 ± 0.088
17,LHAGWNLISSRL,0.633 ± 0.037
18,GELGGRSWVERG,0.648 ± 0.099
19,ELWRAGEVRGGK,0.713 ± 0.035
20,RRSHGLAGPKKG,0.674 ± 0.05
21,TVSGPKTNLGQA,0.71 ± 0.14
22,VCWHSNCVGARH,0.652 ± 0.01
23,CRSGSVGGIRGR,0.679 ± 0.011
24,LRRSRQGGSGRR,0.6 ± 0.044
25,FSPRHSPFSVAR,0.803 ± 0.05

row,Sequence,protein stability index
1,LLALPFPPSSLF,0.701 ± 0.054
2,PQTPPSTLLLPP,0.61 ± 0.1
3,GKIGAIRVVGWA,0.662 ± 0.02
4,GEALSFIFVSPP,0.722 ± 0.033
5,LLLSRLSPPPPS,0.716 ± 0.021
6,FSETDSWCQARS,0.717 ± 0.013
7,RGKRGRRGDEAG,0.712 ± 0.093
8,LVAATGRCIKKP,0.649 ± 0.061
9,GEAGICAGTAGG,0.693 ± 0.041
10,RSDGRWYAGGLG,0.737 ± 0.018
11,VWVCGLGGGVLG,0.777 ± 0.021
12,RSVQSATSHGYQ,0.749 ± 0.15
13,KTAKSEEPILYR,0.753 ± 0.0083
14,PPPPFRPSPPLP,0.664 ± 0.0084
15,WRMGCSVRGVVG,0.693 ± 0.055
16,RHLALSRPTPFP,0.703 ± 0.04
17,PQPRDSLFSLGN,0.691 ± 0.032
18,SNERWCGCGLLW,0.764 ± 0.0097
19,IASSRPHSNQRE,0.692 ± 0.021
20,CSLSRFLGCWGF,0.668 ± 0.062
21,QQRHITHRKIRI,0.6595 ± 0.0048
22,RVGGVVRGERAR,0.671 ± 0.01
23,STPLPPLSLPLF,0.685 ± 0.016
24,QTPNRTPIRPPP,0.716 ± 0.0093
25,REDSGGVNWGRC,0.692 ± 0.039

row,Sequence,protein stability index
1,WSSPCTGGVGKC,0.63 ± 0.0068
2,GRLLCFLFCCSS,0.603 ± 0.035
3,GRKGGEGERERT,0.6715 ± 0.0049
4,RDRTVGLLEGTA,0.695 ± 0.085
5,FVAGFAGGAVGV,0.72 ± 0.0078
6,SMSEYGLLTMLE,0.669 ± 0.011
7,ALCEIWQSLLLA,0.456 ± 0.13
8,GVNGFRIVCGGE,0.674 ± 0.062
9,IWGLSGGKKLLW,0.718 ± 0.043
10,VLDLVPDFSNGG,0.65 ± 0.036
11,PPPLPPLSPPPS,0.749 ± 0.023
12,TRTCGRRRAGGR,0.633 ± 0.1
13,REVSGLTIRMVR,0.659 ± 0.03
14,HILESKKAGPGD,0.635 ± 0.053
15,MVARFGNEFMFL,0.695 ± 0.057
16,SPQRAHLHHHPT,0.654 ± 0.026
17,PPRLHPNTPPLL,0.765 ± 0.08
18,ATPPPVRPSPIL,0.677 ± 0.035
19,SPCRSPPPDLPQ,0.645 ± 0.1
20,ITGPLAPYLGGF,0.688 ± 0.037
21,SGVVSASFVVLD,0.677 ± 0.01
22,GESLSLVRIWRK,0.625 ± 0.13
23,LRFWCFGDVCPV,0.754 ± 0.057
24,FADTALLCELLR,0.687 ± 0.033
25,DGVGRLADGRGI,0.688 ± 0.013

row,Sequence,protein stability index
1,GTWEGDTSACAR,0.636 ± 0.047
2,MVTRSLLLLLHG,0.599 ± 0.053
3,MYPAYNRVRFEL,0.657 ± 0.032
4,ESPTWVVLEGLG,0.6996 ± 0.0014
5,MLSFTQRYYSAI,0.64 ± 0.03
6,LRYLEGWWVLRW,0.554 ± 0.063
7,KREMCHRYTRRS,0.67 ± 0.097
8,KCKLNDTETMGK,0.693 ± 0.026
9,SLPLPNTPVPPI,0.723 ± 0.081
10,GEYEHHKNKKRR,0.7 ± 0.075
11,QTVSISGVPDGF,0.6669 ± 0.001
12,ETNKEDKGKKSI,0.6577 ± 0.0051
13,SSSACNMPVVRL,0.705 ± 0.05
14,TVPFGLPVRPSP,0.7464 ± 0.004
15,APRPAPRPTPLG,0.706 ± 0.051
16,RIRVKSLAPSPS,0.74 ± 0.17
17,AQAPVDPTPVPL,0.658 ± 0.11
18,RSPAPPAPPHLP,0.7068 ± 0.0012
19,LRHWKALVTYLL,0.566 ± 0.052
20,PFRFSPFPLPLP,0.695 ± 0.023
21,QTSASSAALLRP,0.622 ± 0.042
22,LVFHSLCFFPLS,0.694 ± 0.014
23,KRREEKKRKRVE,0.648 ± 0.094
24,FLFADVSSPSSI,0.725 ± 0.038
25,LPLLLPFRTPDF,0.693 ± 0.015

row,Sequence,protein stability index
1,PLHPPSLPPSRS,0.65 ± 0.059
2,WGGGGRLAGLLG,0.687 ± 0.037
3,PPLDPPPAPPPP,0.693 ± 0.08
4,APPPAYGPPPPP,0.692 ± 0.044
5,VGCPGGVWVFRG,0.535 ± 0.011
6,PRSAPPRRPPTP,0.753 ± 0.075
7,RPPPHLTPRVSL,0.689 ± 0.047
8,KRKKKKKRRTKK,0.6442 ± 0.0045
9,SFVQLNGAVDLA,0.717 ± 0.031
10,GRGRWRSVYLRG,0.622 ± 0.0078
11,GVNTKEEPNEFI,0.698 ± 0.041
12,HGVVGWKVNVGG,0.695 ± 0.018
13,KGMEWEKGYKRL,0.838 ± 0.23
14,GYRRELGVCSGD,0.586 ± 0.08
15,PPLPPSLPPPPP,0.63 ± 0.12
16,PAPPPHSAPPLP,0.739 ± 0.024
17,QNTTESANWSIT,0.696 ± 0.052
18,PPPRPICCALNS,0.655 ± 0.014
19,GFSFSSFLRGLF,0.625 ± 0.017
20,GRIVPSFQGSPQ,0.723 ± 0.093
21,ARCLTGFYSFTF,0.794 ± 0.019
